Laboratory results as given in patent US7172865B2, “Rapid and sensitive assay for the detection and quantification of coregulators of nucleic acid binding factors” (Saint Louis University, priority 2001, dated 2007).
Entries after “also recorded” stand apart in the source; their conditions may differ.

How the values were obtained:
[1] = target: DNA; conditions: sequence specific binding; cited from earlier work
[2] = test system: TRP2/TRP3 and TRP1/TRP4 duplexes; test: two-color simultaneous detection, fluorescein-labeled TrpR constructs; format: binding; conditions: excitation 490 nm, one protein only
Source text: The compatibility of the assays described in the instant invention with a variety of fluorescence probes emitting at different wavelengths allows for the designing of variations in which two or more proteins may be detected simultaneously. Nucleic acid constructs specific for each of the proteins to be detected may be labeled with probes that emit light at different wavelengths. In this example, the reaction mixture contained nucleic acid constructs labeled with 7-diethylaminocoumarin-3-carboxylic acid for detecting CAP protein (described in EXAMPLE 2) and nucleic acid constructs labeled with fluorescein for detecting TrpR protein (described in EXAMPLE 6). Specifically, 100 nM CAP5/CAP3, 120 nM CAP1/CAP4, 100 nM TRP2/TRP3, and 120 nM TRP1/TRP4 duplexes were present in the reaction mixture.
The fluorescence spectra with the excitation at 433 nm (excitation of 7-diethylaminocoumarin-3-carbo acid, FIG. 17A) and with the excitation at 490 nm (excitation of fluorescein, FIG. 17B) were recorded in the absence of the proteins (curves 1), in the presence of CAP only (curves 2), in the presence of TrpR only (curves 3), and in the presence of both CAP and TrpR (curves 4). In the presence of only CAP there was no change in the fluorescein signal (FIG. 17B, curve 2) whereas about 60% quenching of the 7-diethylaminocoumarin-3-carbox acid signal was observed (FIG. 17A, curve 2). […]

[3] = test system: consensus CAP site split between CAP1/CAP4 and CAP2/CAP3 duplexes; test: CAP detection by fluorescence quenching, fluorescein/dabcyl-labeled half-site duplexes; format: binding, E. coli
Source text: A 38 bp DNA sequence corresponding to a consensus CAP site (Ebright, R. H., Ebright, Y. W. & Gunasakera, A. Nucleic Acids Res. 17, 10295–10305, 1989) was used as a basis for designing oligonucleotides necessary for preparing the CAP assay reagents according to the scheme illustrated in FIG. 1A. FIG. 3 illustrates the details of the design used. The following four oligonucleotides were synthesized using standard phosphoramidate automated oligonucleotide synthesis (F=dT-fluorescein; D=dT-dabcyl):
The fluorescence donor (fluorescein) and the fluorescence acceptor (dabcyl) were introduced into DNA fragments using commercially available dT-fluorescein and dT-dabcyl (Glen Research, Sterling, Va.) , wherein dT stands for deoxythymidine. […] The fractions containing the oligonucleotides were dried in a vacuum centrifuge concentrator and subsequently dissolved in 50 μl of water. […] The CAP1 oligonucleotide (SEQ ID NO:1) was hybridized with CAP4 oligonucleotide (SEQ ID NO:4) to generate the CAP1/CAP4 duplex and CAP2 oligonucleotide (SEQ ID NO:2) was hybridized with CAP3 oligonucleotide (SEQ ID NO:3) to generate the CAP2/CAP3 duplex. […] The excitation wavelength was at 490 nm and the emission was recorded from 500 to 650 nm.
FIG. 4B illustrates changes in fluorescence observed upon the addition of CAP protein. The spectrum of 50 nM of the CAP1/CAP4 duplex and 50 nM of the CAP2/CAP3 duplex was recorded (curve 1). CAP protein was added at 75 nM and after 15 minutes of incubation the spectrum was recorded (curve 2). A major quenching of fluorescence of approximately 50% of the control signal intensity was observed, which is consistent with the prediction that in the presence of CAP protein the association between the CAP1/CAP4 and CAP2/CAP3 duplexes is facilitated and that the fluorescein (fluorescent donor) present in the CAP2/CAP3 duplex is brought into close proximity to the dabcyl (fluorescent acceptor) present in the CAP1/CAP4 duplex, which results in the quenching of fluorescence emission due to FRET between the fluorescein and dabcyl.
FIG. 6 illustrates the change in fluorescence observed upon addition of increasing amounts of CAP protein in the assay. The experiments were performed under the same conditions as those for the experiment described above and in FIG. 4. Fluorescence quenching increased proportionally with the increase of CAP concentration until a saturation of the signal occurred at ˜150 nM protein.
The kinetics of CAP induced fluorescence quenching was also studied to determine the time required for completion of the assay (FIG. 7). […] At the time indicated by the arrow in FIG. 7, 100 nM CAP protein was added and monitoring of the fluorescence signal was resumed.

[4] = test system: CAP7/CAP8/CAP9 construct; test: CAP assay variant with DNA linked by a long flexible linker; format: binding, E. coli; conditions: 75 nM CAP
Source text: The properties of the assay illustrated in FIG. 1 depend upon the total concentration of the nucleic acid components. By covalently linking the two DNA duplexes—i.e., the components of the assay—by a long flexible linker, the assay becomes independent of DNA concentration, within a range of detectability of fluorescence signal and within a range of concentration required for efficient protein binding. FIG. 11 illustrates the design this variant of the assay for CAP detection. The nucleic acid components of the assay were covalently linked during oligonucleotide synthesis by introducing 12 moieties of the Spacer 18 phosphoramidate (Glen Research, Sterling, Va.), the structure of which is shown in FIG. 11B. The addition of 12 units of Spacer 18 results in a distance of ˜270 Å between the linked oligonucleotides. […]
FIG. 12 illustrates the enhanced performance of the variation of the invention depicted in FIG. 11. […] The kinetics of CAP induced fluorescence quenching was also studied to determine the incubation time necessary for the completion of the assay (FIG. 12B). In this experiment, the fluorescence intensity of 50 nM of the CAP7/CAP8/CAP9 construct was monitored as a function of time at 520 nm with the excitation wavelength set at 490 nm. At the time indicated by the arrow in FIG. 12B, 75 nM CAP protein was added and the monitoring of the fluorescence signal was resumed. […]

B1: CAP: bacterial transcription activator from E. coli which binds DNA in a sequence specific, cAMP-dependent manner (protein, UniProt P0ACJ8 2-210, looked up)
DNA-binding transcriptional …: VLGKPQTDPTLEWFLSHCHIHKYPSKSTLIHQGEKAETLYYIVKGSVAVLIKDEEGKEMILSYLNQGDFIGELGLFEEGQERSAWVRAKTACEVAEISYKKFRQLIQVNPDILMRLSAQMARRLQVTSEKVGNLAFLDVTGRIAQTLLNLAKQPDAMTHPDGMQIKITRQEIGQIVGCSRETVGRILKMLEDQNLISAHGKTIVVYGTR
- Kd [1]: ~0.1 nM
- quenching of the fluorescein signal [2]: no change
- protein concentration at saturation of the quenching signal ([3]; 50 nM duplexes): ~150 nM
- quenching of fluorescence ([3]; 75 nM CAP, 15 minutes, 50 nM of each duplex, 200 μM cAMP): approximately 50%
- time for the reaction to go to completion ([3]; 100 nM CAP, emission 520 nm): approximately 15 minutes
- change in fluorescence upon addition of CAP ([3]; in the absence of cAMP): No change in fluorescence; also recorded: does not produce a change in fluorescence signal intensity
- time for completion of the reaction [4]: ≤ 20 s
- quenching of the fluorescence signal ([4]; 50 nM construct, 200 μM cAMP): ~70%
